In patent US20250122303A1 (HUMMINGBIRD BIOSCIENCE PTE, published 2025):
Where a chain is given by its changes, count along the chain named. Where two headings read alike, the source gives them in different places.

Assays:
[1] = molecular target: T1, His-tagged human HER3 (human, UniProt P21860 20-643); assay: BLI (Octet QK384), antibody on anti-human IgG capture tips, His-tagged human HER3 in solution, global one-site fit
T1 construct: Antigen of the BLI experiments and of the HER2-Fc dimerisation ELISA; also called HER3 His; not shown: His tag
Experimental: (§1) The anti-HER3 antibody clones in IgG1 format were analysed for binding affinity to human HER3. Bio-Layer Interferometry (BLI) experiments were performed using the Octet QK384 system (ForteBio). anti-Human IgG Capture (AHC) Octet sensor tips (Pall ForteBio, USA) were used to anti-HER3 antibodies (25 nM). All measurements were performed at 25° C. with agitation at 1000 rpm. […] Sensograms were referenced for buffer effects and then fitted using the Octet QK384 user software (Pall ForteBio, USA). Kinetic responses were subjected to a global fitting using a one site binding model to obtain values for association (Kₒₙ), dissociation (Koff) rate constants and the equilibrium dissociation constant (KD). Only curves that could be reliably fitted with the software (R²>0.90) were included in the analysis.

[2] = molecular target: T2, human HER3 polypeptide (human, UniProt P21860 20-643); assay: ELISA, plate coated with human HER3, antibody titrated, absorbance 450 nm, x axis Log([Ab]) (ug/ml)
T2 construct: Recombinant antigen of the ELISAs; also called human HER3 (Sino Biological Inc.); human antigen HER3

[3] = molecular target: T1, His-tagged human HER3; assay: BLI (Octet QK384), antibody on anti-human IgG capture tips, His-tagged human HER3 35-278 nM, global 1:1 fit
Experimental: as §1

[4] = molecular target: T3, human HER3 expressed on cells (HEK293 HER3 O/E cells) (human, UniProt P21860 20-1342); assay: flow cytometry, HEK293 cells overexpressing human HER3 (293_OE HER3), 20 ug/ml antibody, FITC anti-Fc secondary; same antibody on 293 cells: 2.48; unstained 293: 0.14
T3 construct: Also used here for HER3 on U2OS cells of the PathHunter kit and on cancer cell lines; also called HEK293 cells transfected with vector encoding human HER3; human HER3-expressing cells
Experimental: (§2) The cells were washed thrice with FACS buffer (PBS with 5 mM EDTA and 0.5% BSA) and resuspended in FITC-conjugated anti-FC antibody (Invitrogen, USA) for 40 min at 2-8° C. Cells were washed again and resuspended in 200 μL of FACS flow buffer (PBS with 5 mM EDTA) for flow cytometric analysis using MACSQuant 10 (Miltenyi Biotec, Germany). After acquisition, all raw data were analyzed using Flowlogic software. Cells were gated using forward and side scatter profile percentage of positive cells was determined for native and overexpressing cell populations.

[5] = molecular target: T1, His-tagged human HER3; assay: BLI (Octet QK384), antibody on anti-human IgG capture tips, His-tagged human HER3 in solution, global 1:1 fit, R^2 = 0.9891, kon Error 1.04E+04; Response 0.1355 / 0.3221 / 0.4533 / 0.5944 at 35 / 39 (as printed in the table; graph label 69) / 139 / 278 nM
Experimental: as §1

[6] = molecular target: T1, His-tagged human HER3; assay: BLI (Octet QK384), antibody on anti-human IgG capture tips, His-tagged human HER3 35-278 nM, global 1:1 fit; kdis Error 1.11E-04
Experimental: as §1

[7] = molecular target: T3, human HER3 expressed on cells (HEK293 …); assay: flow cytometry, HEK293 cells overexpressing human HER3 (293_OE HER3), 20 ug/ml antibody, FITC anti-Fc secondary; same antibody on 293 cells: 5.38; unstained 293: 0.14
Experimental: as §2

[8] = molecular target: T1, His-tagged human HER3; assay: BLI (Octet QK384), antibody on anti-human IgG capture tips, His-tagged human HER3 in solution, global 1:1 fit, R^2 = 0.9917, kon Error 9.57E+03; Response 0.1296 / 0.2851 / 0.4098 / 0.5575 at 35 / 69 / 139 / 278 nM
Experimental: as §1

[9] = molecular target: T4, rat HER3 (rat, UniProt Q62799 20-641, limits assumed); assay: ELISA, plate coated with 0.1 ug/ml rat HER3, antibody titrated, absorbance 450 nm
T4 construct: also called rat homologue of HER3 (Sino Biological Inc.); R. norvegicus HER3
T4 sequence (Q62799 20-641 limits assumed): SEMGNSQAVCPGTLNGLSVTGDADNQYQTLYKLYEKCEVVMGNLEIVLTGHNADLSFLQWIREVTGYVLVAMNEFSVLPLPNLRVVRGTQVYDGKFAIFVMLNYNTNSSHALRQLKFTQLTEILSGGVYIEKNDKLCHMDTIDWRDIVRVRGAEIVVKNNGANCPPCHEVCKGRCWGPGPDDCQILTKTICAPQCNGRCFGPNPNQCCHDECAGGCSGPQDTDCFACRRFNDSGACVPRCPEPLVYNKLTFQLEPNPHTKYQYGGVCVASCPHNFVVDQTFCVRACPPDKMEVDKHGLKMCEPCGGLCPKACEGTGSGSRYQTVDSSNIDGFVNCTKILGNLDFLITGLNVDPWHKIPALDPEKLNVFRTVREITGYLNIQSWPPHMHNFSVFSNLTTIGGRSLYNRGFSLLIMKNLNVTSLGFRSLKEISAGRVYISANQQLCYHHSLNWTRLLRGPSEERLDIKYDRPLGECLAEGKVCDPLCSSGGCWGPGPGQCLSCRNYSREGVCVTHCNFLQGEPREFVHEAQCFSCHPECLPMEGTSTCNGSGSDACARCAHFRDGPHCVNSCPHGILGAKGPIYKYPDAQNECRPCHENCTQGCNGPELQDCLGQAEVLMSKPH
Experimental: (§3) ELISAs were used to determine the binding specificity of the antibodies. The antibodies were analysed for binding to human HER3 polypeptide, as well as respective mouse, rat and monkey homologues of HER3 (Sino Biological Inc., China). The antibodies were also analysed for their ability to bind to human EGFR and human HER2 (Sino Biological Inc., China).
(§4) ELISAs were carried out according to standard protocols. Briefly, 96-well plates (Nunc, Denmark) were coated with 0.1 μg/ml of target polypeptide in phosphate-buffered saline (PBS) for 16 h at 4° C. After blocking for 1 h with 1% BSA in Tris buffer saline (TBS) at room temperature, the anti-HER3 antibody was serially diluted with the highest concentration being 10 μg/ml, and added to the plate. Post 1 h incubation at room temperature, plates were washed three times with TBS containing 0.05% Tween 20 (TBS-T) and were then incubated with a HRP-conjugated […] antibody (Life Technologies, Inc., USA) for 1 h at room temperature. After washing, plates were developed with colorimetric detection substrate 3,3′,5,5′-tetramethylbenzidine (Turbo-TMB; Pierce, USA) for 10 min. The reaction was stopped with 2M H₂SO₄, and OD was measured at 450 nm.

[10] = molecular target: T2, human HER3 polypeptide; assay: ELISA, plate coated with 0.1 ug/ml human HER3, antibody titrated, absorbance 450 nm
Experimental: as §3, §4

[11] = molecular target: T2, human HER3 polypeptide; assay: as above; remark: listed apart in the source
Experimental: as §3, §4

[12] = molecular target: T5, mouse HER3 (mouse, UniProt Q61526 20-641); assay: ELISA, plate coated with 0.1 ug/ml mouse HER3, antibody titrated, absorbance 450 nm
T5 construct: also called mouse homologue of HER3 (Sino Biological Inc.); M. musculus HER3
T5 sequence (Q61526 20-641 limits assumed): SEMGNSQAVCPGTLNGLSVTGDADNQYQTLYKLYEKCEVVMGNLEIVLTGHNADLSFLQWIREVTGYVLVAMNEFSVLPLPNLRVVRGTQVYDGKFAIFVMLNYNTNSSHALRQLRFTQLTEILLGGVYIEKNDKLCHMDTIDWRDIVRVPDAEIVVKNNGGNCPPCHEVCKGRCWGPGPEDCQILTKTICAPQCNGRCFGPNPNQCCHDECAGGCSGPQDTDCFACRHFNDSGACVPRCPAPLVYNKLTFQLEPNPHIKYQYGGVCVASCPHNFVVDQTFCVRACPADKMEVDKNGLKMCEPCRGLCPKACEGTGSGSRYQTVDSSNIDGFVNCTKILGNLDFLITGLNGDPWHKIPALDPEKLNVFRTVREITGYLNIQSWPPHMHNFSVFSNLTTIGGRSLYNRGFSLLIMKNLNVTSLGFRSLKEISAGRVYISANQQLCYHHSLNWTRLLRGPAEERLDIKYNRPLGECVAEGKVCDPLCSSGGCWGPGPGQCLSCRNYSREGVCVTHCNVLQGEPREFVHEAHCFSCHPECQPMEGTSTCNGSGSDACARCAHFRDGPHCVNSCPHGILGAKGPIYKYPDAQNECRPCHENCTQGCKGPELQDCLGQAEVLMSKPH
Experimental: as §3, §4

[13] = molecular target: T6, human EGFR (human, UniProt P00533 25-645); assay: ELISA, plate coated with 0.1 ug/ml human EGFR, antibody titrated, absorbance 450 nm
T6 construct: also called human HER1 (EGFR) (Sino Biological Inc.)
Experimental: as §3, §4

[14] = molecular target: T7, human HER2 (human, UniProt P04626 23-652); assay: ELISA, plate coated with 0.1 ug/ml human HER2, antibody titrated, absorbance 450 nm
T7 construct: also called human HER2 (Sino Biological Inc.)
Experimental: as §3, §4

[15] = molecular target: T8, cynomolgus macaque HER3 (cynomolgus macaque, UniProt G7PIG5 20-643); assay: ELISA, plate coated with 0.1 ug/ml cynomolgus HER3, antibody titrated, absorbance 450 nm
T8 construct: also called monkey homologue of HER3 (Sino Biological Inc.); HER3 cyno
T8 sequence (G7PIG5 entry or part of it): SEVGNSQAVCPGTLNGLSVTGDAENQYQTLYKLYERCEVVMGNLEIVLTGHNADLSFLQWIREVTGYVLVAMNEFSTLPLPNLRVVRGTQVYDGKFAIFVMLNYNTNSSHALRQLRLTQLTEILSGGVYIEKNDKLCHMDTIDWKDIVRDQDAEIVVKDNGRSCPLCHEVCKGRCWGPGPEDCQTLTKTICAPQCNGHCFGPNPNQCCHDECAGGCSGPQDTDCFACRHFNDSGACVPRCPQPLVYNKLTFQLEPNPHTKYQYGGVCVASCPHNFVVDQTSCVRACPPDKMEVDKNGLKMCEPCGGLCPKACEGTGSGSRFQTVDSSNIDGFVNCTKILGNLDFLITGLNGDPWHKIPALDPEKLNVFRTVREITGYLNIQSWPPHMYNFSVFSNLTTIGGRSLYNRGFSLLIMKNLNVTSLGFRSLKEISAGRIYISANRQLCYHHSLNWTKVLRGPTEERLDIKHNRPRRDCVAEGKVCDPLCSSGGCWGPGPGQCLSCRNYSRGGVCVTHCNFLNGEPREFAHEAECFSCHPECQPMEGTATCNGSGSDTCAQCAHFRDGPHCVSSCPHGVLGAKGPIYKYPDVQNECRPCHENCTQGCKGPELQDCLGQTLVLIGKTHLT
Experimental: as §3, §4

[16] = molecular target: T9, His-tagged FcγRIIIa (V158) (human, UniProt P08637 17-208); assay: Bio-Layer Interferometry; His-tagged FcγRIIIa (V158) on anti-Penta-HIS tips, antibody in solution
T9 construct: not shown: His tag
Experimental: All measurements were performed at 25° C. with agitation at 1000 rpm. […] Sensograms were referenced for buffer effects and then fitted using the Octet QK384 user software (Pall ForteBio, USA). Kinetic responses were subjected to a global fitting using a one site binding model to obtain values for association (Kₒₙ), dissociation (Koff) rate constants and the equilibrium dissociation constant (KD). Only curves that could be reliably fitted with the software (R²>0.90) were included in the analysis.
BLI was performed as described above.

[17] = molecular target: T3, human HER3 expressed on cells (HEK293 …); assay: flow cytometry on HEK293T HER3 O/E cells, 10 ug antibody as printed, FITC-conjugated anti-Fc secondary
Experimental: The cells were washed with buffer (PBS with 2 mM EDTA and 0.5% BSA) and resuspended in FITC-conjugated anti-FC antibody (Invitrogen, USA) at 10 μg/ml for 20 min at 4° C. Cells were washed again and resuspended in 200 μL of FACS flow buffer (PBS with 5 mM EDTA) for flow cytometric analysis using MACSQuant 10 (Miltenyi Biotec, Germany). Unstained WT and transfected HEK293 cells were included in the analysis as negative controls. After acquisition, all raw data were analyzed using Flowlogic software. Cells were gated using forward and side scatter profile percentage of positive cells was determined for native and overexpressing cell populations.

[18] = molecular target: T1, His-tagged human HER3; assay: BLI (Octet QK384), antibody on anti-human IgG capture tips, His-tagged human HER3 35-278 nM, global 1:1 fit; kdis Error 1.56E-04
Experimental: as §1

[19] = molecular target: T3, human HER3 expressed on cells (HEK293 …); assay: flow cytometry, HEK293 cells overexpressing human HER3, 20 ug/ml antibody, FITC anti-Fc secondary; same antibody on WT HEK293: 0.60
Experimental: as §2

[20] = molecular target: T3, human HER3 expressed on cells (HEK293 …); assay: as above; remark: listed apart in the source
Experimental: as §2

[21] = molecular target: T1, His-tagged human HER3; assay: BLI (Octet QK384), antibody on anti-human IgG capture tips, His-tagged human HER3 in solution, global 1:1 fit, R^2 = 0.9898, kon Error 8.22E+03; Response 0.0794 / 0.1744 / 0.3278 / 0.5079 at 35 / 69 / 139 / 278 nM
Experimental: as §1

B1: anti-HER3 clone 10D1_c90 IgG1 (antibody, V domains shown)
VH: QVQLQESGPGLVKPSQTLFLTCTVSGYSITSGYSWHWIRQHPGKGLEWIGSIRYSGGTDYNPSLKSLVTISVDTSKNQFSLKLSSVTAADTAVYYCARMTTAPWYPFDYWGQGTTVTVSS
VL: DIQMTQSPSSVSASVGDRVTFTCKASQIVGSNVAWYQQKPGKAPEPLIYSASYLYSSVPSRFSGSGSGTEFTMTISSLEPEDFATYYCQQYTTHPLTFGPGTKVEIKR
notes: Humanised 10D1 variant, IgG1/kappa
For B1, the Kd [1] was < 0.001 nM, the “EC50 (read off the curve)” value [2] was ~7 ng/mL and the koff [3] was < 1e-07 s⁻¹. For the same binder, the “% Parent (HER3 positive)” value [4] was 41.8% and the kon [5] was 252000 M⁻¹ s⁻¹.

B2: anti-HER3 clone 10D1_c91 IgG1 (antibody, V domains shown)
VH: B1 VH with F19S, S28Y, V68A, V72A, T115A
VL: DIQMTQSPSSVSASVGDRVTITCKASQIVGSNVAWYQQKPGKAPMPLIYSASYGYSGVPSRFSGSGSGTDFTLTISSLQPEDFATYYCQQYSSHPLTFGQGTKLEIKR
notes: as for B1
In the case of B2, the Kd [1] is reported as 0.176 nM, the “EC50 (read off the curve)” value [2] is reported as ~5 ng/mL and the koff [6] is reported as 4.73e-05 s⁻¹. For the same binder, the “% Parent (HER3 positive)” value [7] was 48% and the kon [8] was 269000 M⁻¹ s⁻¹.

B3: anti-HER3 clone 10D1 IgG1 (antibody)
heavy: not shown
light: DIVMTQSQKFMSTSVGDRVSVTCKASQIVGSNVAWYQQKPGQSPKPLIYSASYRYSGVPDRFTASGSGTDFTLTITNVQSEDLAEYFCQQYSSHPLTFGAGTKLELKRTVAAPSVFIFPPSDEQLKSGTASVVCLLNNFYPREAKVQWKVDNALQSGNSQESVTEQDSKDSTYSLSSTLTLSKADYEKHKVYACEVTHQGLSSPVTKSFNRGEC
notes: Mouse variable regions on human IgG1/kappa constant regions (human-mouse chimeric antibody); also called 10D1P; 10D1 (parental)
For B3, the EC50 [9] was 0.372 nM, the EC50 [10] was 0.00588 nM and the EC50 [11] was 0.00588 nM. The EC50 [12] was 0.137 nM, the binding result [13] was “no binding (tested: log(M) about -6.7)” and the binding result [14] was “no binding (tested: log(M) about -6.7)”. It also gave an EC50 [15] of 0.00368 nM, a Kd [16] of 298 nM and a koff [16] of 0.04 s⁻¹. The kon [16] was 130000 M⁻¹ s⁻¹, the Kd [1] was 9.58 nM and the “% Parent (HER3 positive)” value [17] was 65.7%. The koff [18] was 0.00173 s⁻¹, the “% Parent (HER3 positive)” value [19] was 99% and the “% Parent (HER3 positive)” value [20] was 99%. The kon [21] was 180000 M⁻¹ s⁻¹.
